The data set concerns the molecule itself. Put plainly: crystal structure.

B1: HsKYNase_66-Ct6XHis (HsKYNase_66 with a C-terminal 6X-Histidine Tag) (enzyme, human)
chain: MEPSSLELPADTVQRIAAELKCHPTDERVALHLDEEDKLRHFRECFYIPKIQDLPPVDLSLVNKDEDAIYFNGNSLGLQPKMVKTYLEEELDKWAKIAIYGWFEGDSPWIHYDESIVGLMKDIVGANEKEIVLMNTLTVNLHLLMLSFFKPTPKRYKILLEAKAFPSDHYAIESQLQLHGLNIEESMRIIKPREGEETLRIEDILEVIEKEGDSIAVILFSGIHYYTGQHFNIPAITKAGQAKGCYVGFDLAHAVGNVELYLHDWGVDFACWCGYKYLNSSPGGIAGAFIHEKHAHTIKPALVGWFGHELSTRFKMDNKLQLIPGVCGFRCSTPPILLVCILHASLEIFKQATMKALRKKSVLLTGYLEYLIKHNYGKDKAATKKPVVNIITPSHVEERGCQLTLTFNVPNKDVFQELEKRGVVCDKRNPNGIRVAPVPLYNSFHDVYKFTNLLTSILDSAETKN
modifications: PLP cofactor bound as internal aldimine
A word on the stoichiometry N: it is the number of molecules, sites or subunits per partner or assembly. Take B1: the “stoichiometry N” value amounted to 2.

Source of the values: article PMC9717613 (Nature catalysis, 2022).
